Biological target: rNaV1.3 channels (rat), P08104
Test: cell-based or functional assay

Sequence of rNaV1.3 channels (rat), P08104 (P08104 whole entry): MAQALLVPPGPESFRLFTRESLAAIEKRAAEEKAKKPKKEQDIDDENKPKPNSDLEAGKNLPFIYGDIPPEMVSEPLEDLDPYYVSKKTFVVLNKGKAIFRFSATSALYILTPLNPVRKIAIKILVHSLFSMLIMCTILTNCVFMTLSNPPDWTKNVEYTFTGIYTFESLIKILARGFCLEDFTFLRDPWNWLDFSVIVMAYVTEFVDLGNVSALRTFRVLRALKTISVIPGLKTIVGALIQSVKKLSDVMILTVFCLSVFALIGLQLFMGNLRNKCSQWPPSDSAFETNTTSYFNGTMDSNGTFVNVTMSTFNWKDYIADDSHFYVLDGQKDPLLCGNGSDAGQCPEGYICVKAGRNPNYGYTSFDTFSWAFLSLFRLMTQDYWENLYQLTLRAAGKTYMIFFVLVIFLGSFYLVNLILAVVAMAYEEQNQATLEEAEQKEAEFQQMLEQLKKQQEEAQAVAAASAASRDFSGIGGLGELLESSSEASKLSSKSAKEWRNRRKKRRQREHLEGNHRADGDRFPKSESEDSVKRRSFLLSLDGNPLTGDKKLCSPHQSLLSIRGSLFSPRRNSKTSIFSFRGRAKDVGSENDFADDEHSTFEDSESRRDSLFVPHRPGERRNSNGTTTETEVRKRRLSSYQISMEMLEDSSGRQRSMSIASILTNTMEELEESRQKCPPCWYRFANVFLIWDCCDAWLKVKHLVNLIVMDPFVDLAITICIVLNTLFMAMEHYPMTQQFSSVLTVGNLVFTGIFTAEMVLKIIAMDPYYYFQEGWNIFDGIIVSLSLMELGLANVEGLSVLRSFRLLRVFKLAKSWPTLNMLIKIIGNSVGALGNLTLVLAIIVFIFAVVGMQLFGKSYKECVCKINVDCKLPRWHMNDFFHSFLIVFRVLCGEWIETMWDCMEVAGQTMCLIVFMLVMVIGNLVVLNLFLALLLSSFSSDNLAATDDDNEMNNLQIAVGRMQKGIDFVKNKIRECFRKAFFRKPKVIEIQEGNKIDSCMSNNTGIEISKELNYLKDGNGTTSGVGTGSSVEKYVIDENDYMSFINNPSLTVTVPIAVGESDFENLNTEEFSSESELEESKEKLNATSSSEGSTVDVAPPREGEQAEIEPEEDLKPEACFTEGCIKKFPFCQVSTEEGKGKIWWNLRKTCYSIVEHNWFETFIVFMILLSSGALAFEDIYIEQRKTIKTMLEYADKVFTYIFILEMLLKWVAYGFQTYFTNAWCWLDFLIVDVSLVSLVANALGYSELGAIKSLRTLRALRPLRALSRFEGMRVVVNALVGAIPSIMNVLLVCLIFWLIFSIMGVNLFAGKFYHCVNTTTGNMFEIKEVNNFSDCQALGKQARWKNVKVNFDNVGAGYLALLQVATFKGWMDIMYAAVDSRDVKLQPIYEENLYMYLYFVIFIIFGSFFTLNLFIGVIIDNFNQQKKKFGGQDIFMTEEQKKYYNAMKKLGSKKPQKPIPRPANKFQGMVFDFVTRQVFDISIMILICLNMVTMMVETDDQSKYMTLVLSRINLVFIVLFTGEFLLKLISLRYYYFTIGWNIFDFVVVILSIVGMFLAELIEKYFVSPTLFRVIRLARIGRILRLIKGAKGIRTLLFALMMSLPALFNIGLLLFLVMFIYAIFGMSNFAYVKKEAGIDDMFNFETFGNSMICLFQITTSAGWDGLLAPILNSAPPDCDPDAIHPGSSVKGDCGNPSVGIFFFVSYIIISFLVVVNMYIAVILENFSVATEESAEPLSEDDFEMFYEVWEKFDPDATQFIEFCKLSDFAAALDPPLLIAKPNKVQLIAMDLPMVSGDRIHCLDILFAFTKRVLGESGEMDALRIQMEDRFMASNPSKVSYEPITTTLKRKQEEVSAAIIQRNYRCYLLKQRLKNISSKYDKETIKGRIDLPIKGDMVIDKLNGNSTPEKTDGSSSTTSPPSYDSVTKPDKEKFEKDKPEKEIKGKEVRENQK

DCLGFMRKCIPDNDKCCRPNLVCSRTHKWCKYVF (modifications not checked) [Peptide E]
IC50 Nav1.3 (µM); inhibition of channel current, patch clamp: 0.31 µM

From patent publication US20110065647A1
